Assay results as given in US20080038748.

System: human recombinant LAP β1 (R&D), not treated with protease
Sequence (chain, as listed by the source): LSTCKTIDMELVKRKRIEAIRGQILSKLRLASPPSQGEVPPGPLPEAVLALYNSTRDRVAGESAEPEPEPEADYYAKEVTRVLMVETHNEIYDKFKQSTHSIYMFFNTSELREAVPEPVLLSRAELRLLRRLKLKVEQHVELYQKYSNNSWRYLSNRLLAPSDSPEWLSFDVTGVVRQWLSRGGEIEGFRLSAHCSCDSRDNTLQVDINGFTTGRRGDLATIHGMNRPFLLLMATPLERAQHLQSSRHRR

human plasma kallikrein (Sigma), sequence (chain, as listed by the source): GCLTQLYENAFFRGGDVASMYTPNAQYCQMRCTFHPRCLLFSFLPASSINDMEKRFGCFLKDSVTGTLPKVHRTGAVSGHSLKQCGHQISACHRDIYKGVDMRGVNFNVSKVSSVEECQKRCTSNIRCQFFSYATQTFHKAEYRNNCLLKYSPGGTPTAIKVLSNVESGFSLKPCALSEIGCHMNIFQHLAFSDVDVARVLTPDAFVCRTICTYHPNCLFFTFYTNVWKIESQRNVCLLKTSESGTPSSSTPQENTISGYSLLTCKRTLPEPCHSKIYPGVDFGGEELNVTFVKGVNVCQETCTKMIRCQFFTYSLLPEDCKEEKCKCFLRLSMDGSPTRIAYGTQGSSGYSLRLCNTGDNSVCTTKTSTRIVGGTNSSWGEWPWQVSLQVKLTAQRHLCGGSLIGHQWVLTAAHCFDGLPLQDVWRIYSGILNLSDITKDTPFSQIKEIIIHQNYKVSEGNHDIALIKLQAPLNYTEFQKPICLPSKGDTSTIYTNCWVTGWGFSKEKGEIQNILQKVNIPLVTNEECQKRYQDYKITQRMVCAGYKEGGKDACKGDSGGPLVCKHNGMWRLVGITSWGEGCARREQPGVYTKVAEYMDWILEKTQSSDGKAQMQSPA
human recombinant matrix metalloprotease 3 (MMP3) (Alexis), sequence (chain, as listed by the source): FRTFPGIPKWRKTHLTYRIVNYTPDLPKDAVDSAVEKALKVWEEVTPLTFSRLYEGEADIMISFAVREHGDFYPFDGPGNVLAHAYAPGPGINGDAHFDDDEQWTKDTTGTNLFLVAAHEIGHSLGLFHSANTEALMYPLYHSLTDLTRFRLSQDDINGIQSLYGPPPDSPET

Row | Substance | limited degradation; cleavage site by N-terminal sequencing of the fragments
1 | human plasma kallikrein (Sigma) | plasma kallikrein specifically cleaves between 58 Arg and 59 Leu thereof
2 | human recombinant matrix metalloprotease 3 (MMP3) (Alexis) | MMP3 specifically cleaves between 79 Ala and 80 Leu thereof
